Test results reported in the RNAGym collection of RNA variant scans (doi:10.1073/pnas.2313332121).

B1: TPR t1 (parent)
chain: GACCAAUCUGCCCUCAGAGCUCGAGAACAUCUUCGGAUGCAGAGGAGGCAGGCUUCGGUGGCGCGAUAGCGCCAACGUCCUCAACCUCCAAUGCAUCCCACCACAUGAUGAUGCCUGAAGAGCCUUGGUUUUUUG

Variants of: B1
Experiment: polymerase ribozyme fitness, log enrichment relative to wild type (log ratio); higher = more active; in vitro selection for triplet polymerase activity
In short: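 Mutant libraries were PCR-built and transcribed for each subunit of a heterodimeric triplet polymerase ribozyme and selected for one round in triplicate at −7 °C, frozen, before gel excision of extended constructs and streptavidin-bead capture. Input and output libraries were Illumina-sequenced, keeping genotypes with ≥10 input reads and ≥1 read per output. Fitness is a logarithmic ratio of genotype to wild-type enrichment, in base 2, using inverse-variance-weighted replicate averages.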
For C49A U133A, the “polymerase ribozyme fitness (log ratio)” value was -0.928.
With A50C U87G G120C U131A the “polymerase ribozyme fitness (log ratio)” value was 0.982.
In the case of A50U U87A, the “polymerase ribozyme fitness (log ratio)” value is reported as -1.09.
In the case of A50C C79G U125A, the “polymerase ribozyme fitness (log ratio)” value is reported as -1.78.
With A50U G51C C73U the “polymerase ribozyme fitness (log ratio)” value was -3.52.
For G51C G61U C114U, the “polymerase ribozyme fitness (log ratio)” value was -6.08.
With C49A U116G the “polymerase ribozyme fitness (log ratio)” value was -2.39.
In the case of G51A G60A C124G, the “polymerase ribozyme fitness (log ratio)” value is reported as -1.16.
In the case of C49U C56A A68G, the “polymerase ribozyme fitness (log ratio)” value is reported as -5.08.
With A50U C76A G77A the “polymerase ribozyme fitness (log ratio)” value was -1.53.
In the case of C49A A50G G52U A118U, the “polymerase ribozyme fitness (log ratio)” value is reported as 0.379.
In the case of C49U A50G G71U A105U, the “polymerase ribozyme fitness (log ratio)” value is reported as -4.83.
In the case of A50C U87C, the “polymerase ribozyme fitness (log ratio)” value is reported as -0.237.
For A50U U125G G127C, the “polymerase ribozyme fitness (log ratio)” value was -3.43.
With A50U C76A C82U the “polymerase ribozyme fitness (log ratio)” value was -1.67.
For C49A G71U G120U, the “polymerase ribozyme fitness (log ratio)” value was 0.255.
In the case of C49U A95G, the “polymerase ribozyme fitness (log ratio)” value is reported as -1.14.
For A50C G107A, the “polymerase ribozyme fitness (log ratio)” value was -6.09.
For A50C G107U, the “polymerase ribozyme fitness (log ratio)” value was -5.95.
With C49U C73G A121C the “polymerase ribozyme fitness (log ratio)” value was 0.163.
In the case of A50G G60A, the “polymerase ribozyme fitness (log ratio)” value is reported as 0.351.
In the case of A50C U130A, the “polymerase ribozyme fitness (log ratio)” value is reported as -0.352.
With A50G U78G the “polymerase ribozyme fitness (log ratio)” value was 0.0351.
For G48U G69A U87A, the “polymerase ribozyme fitness (log ratio)” value was -6.61.
For C49A G63U C94U A118G, the “polymerase ribozyme fitness (log ratio)” value was -1.43.
With C49U C85A the “polymerase ribozyme fitness (log ratio)” value was -2.47.
In the case of A50U G58A C88U, the “polymerase ribozyme fitness (log ratio)” value is reported as -2.22.
In the case of C49G C53G G69C C72U, the “polymerase ribozyme fitness (log ratio)” value is reported as -1.21.
In the case of G51A A95G, the “polymerase ribozyme fitness (log ratio)” value is reported as -2.62.
For G51A C89U U130A, the “polymerase ribozyme fitness (log ratio)” value was -3.01.
In the case of C49A U78C, the “polymerase ribozyme fitness (log ratio)” value is reported as -0.24.
With G48U U87G U133G the “polymerase ribozyme fitness (log ratio)” value was -0.334.
In the case of C49U C73U U78C G110U, the “polymerase ribozyme fitness (log ratio)” value is reported as -2.87.
For A50U C64U C70U, the “polymerase ribozyme fitness (log ratio)” value was -5.2.
In the case of A50U G60U, the “polymerase ribozyme fitness (log ratio)” value is reported as -1.4.
With C49U C124U the “polymerase ribozyme fitness (log ratio)” value was 1.03.
In the case of A50U G113U, the “polymerase ribozyme fitness (log ratio)” value is reported as -2.75.
For A50U G113A, the “polymerase ribozyme fitness (log ratio)” value was -2.01.
In the case of C49G C70U, the “polymerase ribozyme fitness (log ratio)” value is reported as -1.3.
With C49G G77A U112G the “polymerase ribozyme fitness (log ratio)” value was -0.318.
For G51C G63A U78C A111C, the “polymerase ribozyme fitness (log ratio)” value was -6.17.
With C49A C62U A66G the “polymerase ribozyme fitness (log ratio)” value was -1.75.
With G51A G71A the “polymerase ribozyme fitness (log ratio)” value was -4.53.
For A50U A74G, the “polymerase ribozyme fitness (log ratio)” value was -1.27.
In the case of C49A U112A, the “polymerase ribozyme fitness (log ratio)” value is reported as 1.49.
With G51C U129C the “polymerase ribozyme fitness (log ratio)” value was -3.96.
With A50C G60C C64A A103G C104A C124U the “polymerase ribozyme fitness (log ratio)” value was -5.11.
With A50C G71A C79G C104A the “polymerase ribozyme fitness (log ratio)” value was -5.88.
In the case of C49G G51U U54G, the “polymerase ribozyme fitness (log ratio)” value is reported as -2.34.
For C49G A95U A111G, the “polymerase ribozyme fitness (log ratio)” value was -0.422.
With C49U G63U A95G U112A the “polymerase ribozyme fitness (log ratio)” value was -2.42.
In the case of C49U C97U, the “polymerase ribozyme fitness (log ratio)” value is reported as -1.01.
For G48U C114G G117C G120C, the “polymerase ribozyme fitness (log ratio)” value was -6.82.
In the case of A50U G58C G71C C104A C124A, the “polymerase ribozyme fitness (log ratio)” value is reported as -3.2.
With A50U U59G U112G the “polymerase ribozyme fitness (log ratio)” value was -0.842.
In the case of A50C C72A C124U U130A, the “polymerase ribozyme fitness (log ratio)” value is reported as 0.593.
For C49G U55G U129A, the “polymerase ribozyme fitness (log ratio)” value was -1.82.
With G48U G61U G113A the “polymerase ribozyme fitness (log ratio)” value was -1.24.
For C49G C53A C64U, the “polymerase ribozyme fitness (log ratio)” value was -0.365.
In the case of C49G G127A, the “polymerase ribozyme fitness (log ratio)” value is reported as -1.65.
With G48U G71A C123A U126A the “polymerase ribozyme fitness (log ratio)” value was -2.04.
In the case of C49A G51U C56A, the “polymerase ribozyme fitness (log ratio)” value is reported as -2.24.
For A50C G61C U109A, the “polymerase ribozyme fitness (log ratio)” value was -6.96.
With C49G G60C A119U U133A the “polymerase ribozyme fitness (log ratio)” value was -2.93.
With C49U G113U G117U the “polymerase ribozyme fitness (log ratio)” value was -5.67.
With A50C U81C the “polymerase ribozyme fitness (log ratio)” value was 0.175.
In the case of A50U U106A, the “polymerase ribozyme fitness (log ratio)” value is reported as -0.951.
For C49U U81A C89A, the “polymerase ribozyme fitness (log ratio)” value was -4.05.
For C49U C102G C104A C124A U130A, the “polymerase ribozyme fitness (log ratio)” value was -4.4.
For A50G U54C G63U C88U U130G, the “polymerase ribozyme fitness (log ratio)” value was -2.9.
With A50C C72G G127A the “polymerase ribozyme fitness (log ratio)” value was -2.8.
For A50G C53G G61A U116A G117A, the “polymerase ribozyme fitness (log ratio)” value was -3.29.
With C49A A90C A103U C114A the “polymerase ribozyme fitness (log ratio)” value was -7.25.
With G48U C79G the “polymerase ribozyme fitness (log ratio)” value was -3.52.
With G48U G52U C73U A90U C124G the “polymerase ribozyme fitness (log ratio)” value was -1.99.
In the case of G48U C102U, the “polymerase ribozyme fitness (log ratio)” value is reported as -3.66.
In the case of C49G C79U U96G, the “polymerase ribozyme fitness (log ratio)” value is reported as -0.996.
For G48U G52U C98U G117U, the “polymerase ribozyme fitness (log ratio)” value was -6.54.
With G51A C53G G117C G127C the “polymerase ribozyme fitness (log ratio)” value was -7.73.
For G51A G127A, the “polymerase ribozyme fitness (log ratio)” value was -3.6.
In the case of C49A C56U G120C U131G, the “polymerase ribozyme fitness (log ratio)” value is reported as 1.43.
For C49U C82A, the “polymerase ribozyme fitness (log ratio)” value was -0.514.
For C49U C82G, the “polymerase ribozyme fitness (log ratio)” value was -0.241.
